We go through two molecules from PMC5314766.

Common to all, as to test: fluorescence polarization
One data set concerns the target Exo10(6exo-) Lasso (Saccharomyces cerevisiae, UniProt Q12149;P46948;Q12277;P25359;Q05636;P53256;P48240;P38792;Q08285;P53859 …, D238N).
Data set [1] concerns the target T1, Rrp6 Lassoless, catalytically dead (Saccharomyces cerevisiae, UniProt Q12149 128-634, D238N).
T1 sequence: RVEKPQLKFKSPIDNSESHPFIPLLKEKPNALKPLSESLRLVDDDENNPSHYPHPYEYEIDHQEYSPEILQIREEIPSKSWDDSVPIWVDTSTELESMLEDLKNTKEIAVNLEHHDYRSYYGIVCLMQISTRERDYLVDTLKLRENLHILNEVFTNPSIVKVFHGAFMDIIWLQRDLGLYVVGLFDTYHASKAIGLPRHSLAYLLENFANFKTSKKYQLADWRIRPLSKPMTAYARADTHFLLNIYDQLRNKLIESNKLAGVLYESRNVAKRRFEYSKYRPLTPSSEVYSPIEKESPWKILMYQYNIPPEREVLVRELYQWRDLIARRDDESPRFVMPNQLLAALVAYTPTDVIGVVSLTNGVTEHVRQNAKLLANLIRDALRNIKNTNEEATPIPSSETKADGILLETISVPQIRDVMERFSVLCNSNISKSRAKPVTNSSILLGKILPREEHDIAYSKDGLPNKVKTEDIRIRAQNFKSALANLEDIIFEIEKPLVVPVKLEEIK

The target in data set [2] is T2, Rrp6 Lasso (CTD intact), catalytically dead (Saccharomyces cerevisiae, UniProt Q12149 128-733, D238N).
T2 sequence: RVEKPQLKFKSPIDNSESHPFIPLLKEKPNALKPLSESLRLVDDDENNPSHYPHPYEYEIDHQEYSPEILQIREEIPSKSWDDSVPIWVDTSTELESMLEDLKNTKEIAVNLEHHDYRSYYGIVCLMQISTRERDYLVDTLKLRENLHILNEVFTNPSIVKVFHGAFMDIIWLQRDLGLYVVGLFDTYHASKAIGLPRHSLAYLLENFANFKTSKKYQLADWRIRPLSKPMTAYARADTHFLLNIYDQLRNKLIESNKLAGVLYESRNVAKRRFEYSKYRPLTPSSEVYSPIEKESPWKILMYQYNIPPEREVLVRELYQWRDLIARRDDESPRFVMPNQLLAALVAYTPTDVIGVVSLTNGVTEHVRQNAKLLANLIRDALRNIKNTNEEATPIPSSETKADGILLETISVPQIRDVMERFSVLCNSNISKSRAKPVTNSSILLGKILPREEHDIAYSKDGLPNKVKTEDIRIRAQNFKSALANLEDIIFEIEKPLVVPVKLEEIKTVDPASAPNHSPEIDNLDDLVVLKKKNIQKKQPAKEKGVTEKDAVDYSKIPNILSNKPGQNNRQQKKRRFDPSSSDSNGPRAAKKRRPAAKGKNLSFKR

In data set [3] the target is T3, Rrp6 EARless, catalytically dead (Saccharomyces cerevisiae, UniProt Q12149 128-733, D238N;del517-617).
T3 sequence: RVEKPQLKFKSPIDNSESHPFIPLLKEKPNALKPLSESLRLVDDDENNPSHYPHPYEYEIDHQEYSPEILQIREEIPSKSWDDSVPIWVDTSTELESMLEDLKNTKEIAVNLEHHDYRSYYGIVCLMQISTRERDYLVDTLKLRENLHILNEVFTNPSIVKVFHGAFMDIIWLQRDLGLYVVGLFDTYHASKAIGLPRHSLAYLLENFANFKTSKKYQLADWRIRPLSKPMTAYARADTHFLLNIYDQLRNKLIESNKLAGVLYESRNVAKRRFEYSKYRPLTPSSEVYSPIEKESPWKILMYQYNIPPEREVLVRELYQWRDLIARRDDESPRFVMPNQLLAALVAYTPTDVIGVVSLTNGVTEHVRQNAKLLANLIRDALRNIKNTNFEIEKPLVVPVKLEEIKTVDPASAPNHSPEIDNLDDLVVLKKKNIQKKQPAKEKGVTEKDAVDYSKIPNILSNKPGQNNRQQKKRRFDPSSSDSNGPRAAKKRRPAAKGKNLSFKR

Data set [4] has as its target Exo11(44exo-/6exo-) Lassoless (Saccharomyces cerevisiae, UniProt Q12149;Q08162;P46948;Q12277;P25359;Q05636;P53256;P48240;P38792;Q08285;P53859 …, D238N;D551N).
Another data set deals with Exo10(6exo-) Lassoless (Saccharomyces cerevisiae, UniProt Q12149;P46948;Q12277;P25359;Q05636;P53256;P48240;P38792;Q08285;P53859 …, D238N).
The target in data set [5] is Exo10(6exo-) Partial lasso (Saccharomyces cerevisiae, UniProt Q12149;P46948;Q12277;P25359;Q05636;P53256;P48240;P38792;Q08285;P53859 …, D238N).

In the case of AUUAUUUAUUUAUUAUUAUUUAUU (ssRNA) [AU-rich RNA 24 nt], in the data set with Exo10(6exo-) Lasso, the binding result is on record as “binds”.

For the molecule AAAAAAAAAAAAAAAAAAAAAAAAAAAAAAAAAAAAA (ssRNA) [37 nt polyA RNA], the binding signal in data set [1] was 4 fold weaker than lasso-containing (P3); in data set [2], 4 fold tighter than lassoless (P4); in data set [3], 6 fold tighter than lassoless (P4); in data set [4], 6 fold weaker than P9; with Exo10(6exo-) Lassoless, over 15 fold weaker than P6; in data set [5] it was over 15 fold weaker than P6.
